Assay results: patent US20250368684A1, “NEW EGFRVIII-BINDING PEPTIDES, CONJUGATES AND USES THEREOF” (NANOTHERA BIOSCIENCES, INC., priority 2021, published 2025)
No end group written: not given here. *: point of attachment. FITC = O=C1OC2(c3ccc(O)cc3Oc3cc(O)ccc32)c2ccc(NC(=S)*)cc21; Ahx = NCCCCCC(=O)O

Assays:
[1] = target: T1, EGFR WT cells (expressing EGFR WT) (Homo sapiens, UniProt P00533); assay: Flow cytometry cellular binding of FITC-Ahx-peptides on EGFR WT cells; settings: 10 µM FITC-Ahx-peptide, 20 min at RT
T1 construct: host or cells: CLTH/EGFR WT, established from human embryo kidney cells
Description: (§1) 293T human embryo kidney cells (Sigma; #85120602-1VL), CLTH/EGFR WT cells (Celther; #CL 01010-CLTH) and CLTH/EGFRvIII cells (Celther; #CL 01001-CLTH) were purchased from Sigma and Celther accordingly. CLTH/EGFR WT and CLTH/EGFRvIII cell lines are established from human embryo kidney cells to stably express EGFR WT and EGFRvIII proteins respectively. The three types of cells were maintained in Dulbecco's modified Eagle media (high glucose) supplemented with 10% fetal bovine serum (FBS), 100 U/mL penicillin, […] streptomycin and 1% MEM NEAA. The cells were cultured at 37° C. in a humidified atmosphere containing 5% CO2.
On FITC-Ahx-peptides. Flow cytometry analysis was also performed to quantitatively analyze the binding affinity of the synthetized peptides to the different cell types. […] Cells were analyzed by flow cytometry on a MACSQuant Analyser 16 (Miltenyi Biotec) using the MACS Quantify software to acquire and process the data. LIVE/DEAD™ Fixable dye was excited at 640 nm and fluorescence was collected with the 785/62 nm filter. FITC was excited at 488 nm and fluorescence was collected with the 525/50 nm filter. Viable cells were gated, FITC fluorescence intensity was recorded and the mean fluorescence intensity (MFI) was measured. MFI values were then normalized by substracting MFI from blank cells and dividing by the correction factor determined using a spectrofluorimeter. […]

[2] = system: 293T cells; assay: Flow cytometry cellular binding of FITC-Ahx-peptides on 293T cells; set-up: species or system human; settings: 10 µM FITC-Ahx-peptide, 20 min at RT
Description: as §1
(§2) On FITC-Ahx-peptides. Flow cytometry analysis was also performed to quantitatively analyze the binding affinity of the synthetized peptides to the different cell types. Briefly, 293T, CLTH/EGFR WT and CLTH/EGFRvIII cells (100 000 cells, 500 μL) were plated in 24-well plates and incubated overnight at 37° C. in a humidified atmosphere containing 5% CO2 overnight. […] Cells were analyzed by flow cytometry on a MACSQuant Analyser 16 (Miltenyi Biotec) using the MACS Quantify software to acquire and process the data. LIVE/DEAD™ Fixable dye was excited at 640 nm and fluorescence was collected with the 785/62 nm filter. FITC was excited at 488 nm and fluorescence was collected with the 525/50 nm filter. Viable cells were gated, FITC fluorescence intensity was recorded and the mean fluorescence intensity (MFI) was measured. MFI values were then normalized by substracting MFI from blank cells and dividing by the correction factor determined using a spectrofluorimeter.
Since FITC fluorescence can be impacted by the nature of the amino acids in the peptide sequence and since the conjugation rate of FITC in the peptide synthesis can fluctuate, it was needed to measure a correction factor according to the fluorescence intensity of each peptide. As flow cytometry cannot analyze fluorescence of small molecules, a spectrofluorimeter was used in similar conditions (excitation and emission) to the flow cytometry conditions. […] Linear regressions were determined for each peptide. […]

[3] = target: T2, EGFRvIII cells (expressing EGFRvIII) (Homo sapiens, UniProt P00533, DELINS30-297G); assay: Flow cytometry cellular binding of FITC-Ahx-peptides on EGFRvIII cells; settings: for Normalized MFI vIII: 10 µM FITC-Ahx-peptide, 20 min at RT, EGFRvIII cells
T2 construct: host or cells: CLTH/EGFRvIII, established from human embryo kidney cells
Description: as §1, §2
Since FITC fluorescence can be impacted by the nature of the amino acids in the peptide sequence and since the conjugation rate of FITC in the peptide synthesis can fluctuate, it was needed to measure a correction factor according to the fluorescence intensity of each peptide. As flow cytometry cannot analyze fluorescence of small molecules, a spectrofluorimeter was used in similar conditions (excitation and emission) to the flow cytometry conditions.

[4] = target: T3, CLTH/EGFRvIII cells expressing hEGFRvIII (Homo sapiens, UniProt P00533, DELINS30-297G); assay: Flow cytometry binding of phage displayed peptides on hEGFRvIII cells; settings: phage displayed peptide, vs hEGFR WT and 293T cells
T3 construct: host or cells: CLTH/EGFRvIII, established from human embryo kidney cells
Description: as §1
Cell cultures and flow cytometry experiments with phages or peptides were performed by Institut Mondor de Recherche Biomédicale (IMRB U955, France). […] Anti-IgG1 conjugated to phycoerythrin (PE) (Miltenyi Biotec) was used as a secondary antibody to read the fluorescence of PE. […]
On phages. […] Cells were analyzed by flow cytometry on a MACSQuant Analyser 16 (Miltenyi Biotec) using the MACS Quantify software to acquire and process the data. Viobility™ 405/520 fixable dye was excited at 405 nm and fluorescence was collected with the 525/50 nm filter. PE was excited at 488 nm and fluorescence was collected with the 579/34 nm filter. Viable cells were gated, and PE fluorescence intensity was recorded.

[5] = target: T4, human EGF receptor variant III (EGFRvIII) on CLTH/EGFRvIII cells (human, UniProt P00533 25-1210); assay: flow cytometry, phage on CLTH/EGFRvIII cells, anti-M13-biotin plus anti-biotin-PE
T4 construct: whole, on cells

[6] = target: human EGF receptor variant III (EGFRvIII) on CLTH/EGFRvIII cells (human) (UniProt P00533); assay: flow cytometry, normalized MFI on EGFRvIII cells over normalized MFI on EGFR WT cells
[7] = target: human EGF receptor variant III (EGFRvIII) on CLTH/EGFRvIII cells (human) (UniProt P00533); assay: flow cytometry, 10 uM FITC-Ahx-peptide, 20 min RT, CLTH/EGFRvIII cells; MFI minus blank cells, divided by correction factor
[8] = target: human wild type EGF receptor (EGFR WT) on CLTH/EGFR WT cells (human) (UniProt P00533); assay: flow cytometry, 10 uM FITC-Ahx-peptide, 20 min RT, CLTH/EGFR WT cells; MFI minus blank cells, divided by correction factor

## FITC-Ahx-FALGEA-CONH2: literature control peptide FALGEA (SEQ ID NO:5) linked to the FITC-Ahx tag ({FITC-Ahx}-FALGEA-NH2; SMILES CC(C)C[C@H](NC(=O)[C@H](C)NC(=O)[C@H](Cc1ccccc1)NC(=O)CCCCCNC(=S)Nc1ccc2c(c1)C(=O)OC21c2ccc(O)cc2Oc2cc(O)ccc21)C(=O)NCC(=O)N[C@@H](CCC(=O)O)C(=O)N[C@@H](C)C(N)=O)
[1]
  Normalized MFI WT: 0.7
[2]
  Normalized MFI 293T: 0.9
[3]
  Normalized MFI vIII: 1.8
[3]; normalized MFI of vIII cell line over WT cell line
  Normalized MFI ratio VIII/WT: 2.6

## FITC-Ahx-VLGREEWSTSW-CONH2: VLGREEWSTSYW conjugated with FITC at the N-terminus via 6-aminohexanoic acid (Ahx) linker
[2]
  Normalized MFI 293T: 5.1

## FITC-Ahx-YHWYGYTPENVI-CONH2: literature control peptide YHWYGYTPENVI (SEQ ID NO:6) linked to the FITC-Ahx tag ({FITC-Ahx}-YHWYGYTPENVI-NH2; SMILES CC[C@H](C)[C@H](NC(=O)[C@@H](NC(=O)[C@H](CC(N)=O)NC(=O)[C@H](CCC(=O)O)NC(=O)[C@@H]1CCCN1C(=O)[C@@H](NC(=O)[C@H](Cc1ccc(O)cc1)NC(=O)CNC(=O)[C@H](Cc1ccc(O)cc1)NC(=O)[C@H](Cc1c[nH]c2ccccc12)NC(=O)[C@H](Cc1c[nH]cn1)NC(=O)[C@H](Cc1ccc(O)cc1)NC(=O)CCCCCNC(=S)Nc1ccc2c(c1)C(=O)OC21c2ccc(O)cc2Oc2cc(O)ccc21)[C@@H](C)O)C(C)C)C(N)=O)
[1]
  Normalized MFI WT: 4.5
[2]
  Normalized MFI 293T: 7.6
[3]
  Normalized MFI vIII: 9.7

## LEKGNTLSTSTV (phage displayed; Peptide selected from the NGS analysis, not showing specific binding to hEGFRvIII cells in flow cytometry) [peptide selected from NGS analysis of biopanning]
[4]
  specific binding to hEGFRvIII: did not show specific binding

## NESGITRIALQD (Peptide selected from the NGS analysis, not showing specific binding to hEGFRvIII cells in flow cytometry) [peptide selected from NGS analysis of biopanning]
[4]
  specific binding to hEGFRvIII: did not show specific binding

B1: LEKGNTLSTSTV phage displayed peptide (peptide)
peptide: LEKGNTLSTSTV
modifications: also: displayed on M13 phage coat protein
notes: not shown: M13 coat protein of the Ph.D.-12 library that carries the peptide
[5]
  binding result: no binding

B2: FITC-Ahx-FALGEA-CONH2 (peptide)
peptide: {FITC-Ahx}-FALGEA-NH2
SMILES: CC(C)C[C@H](NC(=O)[C@H](C)NC(=O)[C@H](Cc1ccccc1)NC(=O)CCCCCNC(=S)Nc1ccc2c(c1)C(=O)OC21c2ccc(O)cc2Oc2cc(O)ccc21)C(=O)NCC(=O)N[C@@H](CCC(=O)O)C(=O)N[C@@H](C)C(N)=O
[6]
  Normalized MFI ratio vIII/WT: 2.6
[7]
  Normalized MFI: 1.8

B3: FITC-Ahx-…-CONH2 (peptide)
peptide: {FITC-Ahx}-YHWYGYTPENVI-NH2
SMILES: CC[C@H](C)[C@H](NC(=O)[C@@H](NC(=O)[C@H](CC(N)=O)NC(=O)[C@H](CCC(=O)O)NC(=O)[C@@H]1CCCN1C(=O)[C@@H](NC(=O)[C@H](Cc1ccc(O)cc1)NC(=O)CNC(=O)[C@H](Cc1ccc(O)cc1)NC(=O)[C@H](Cc1c[nH]c2ccccc12)NC(=O)[C@H](Cc1c[nH]cn1)NC(=O)[C@H](Cc1ccc(O)cc1)NC(=O)CCCCCNC(=S)Nc1ccc2c(c1)C(=O)OC21c2ccc(O)cc2Oc2cc(O)ccc21)[C@@H](C)O)C(C)C)C(N)=O
[8]
  Normalized MFI: 4.5

B4: NESGITRIALQD phage displayed peptide (peptide)
peptide: NESGITRIALQD
modifications: also: displayed on M13 phage coat protein
notes: as for B1
[5]
  binding result: no binding
